# Test results from patent US20040001835A1, “Prevention or treatment of cancer using integrin alphavbeta3 antagonists in combination with other agents” (MedImmune, Inc., priority 2002, published 2004).
# T1: modified mouse Integrin αVβ3 with amino acids 164-202 of the human β chain (Mus musculus, UniProt O54890, A208T/I198L/K199E/N204D/N207T/Q196E/S226T)
# T1 sequence (O54890 26-787 Q196E/I198L/K199E/N204D/N207T/A208T/S226T): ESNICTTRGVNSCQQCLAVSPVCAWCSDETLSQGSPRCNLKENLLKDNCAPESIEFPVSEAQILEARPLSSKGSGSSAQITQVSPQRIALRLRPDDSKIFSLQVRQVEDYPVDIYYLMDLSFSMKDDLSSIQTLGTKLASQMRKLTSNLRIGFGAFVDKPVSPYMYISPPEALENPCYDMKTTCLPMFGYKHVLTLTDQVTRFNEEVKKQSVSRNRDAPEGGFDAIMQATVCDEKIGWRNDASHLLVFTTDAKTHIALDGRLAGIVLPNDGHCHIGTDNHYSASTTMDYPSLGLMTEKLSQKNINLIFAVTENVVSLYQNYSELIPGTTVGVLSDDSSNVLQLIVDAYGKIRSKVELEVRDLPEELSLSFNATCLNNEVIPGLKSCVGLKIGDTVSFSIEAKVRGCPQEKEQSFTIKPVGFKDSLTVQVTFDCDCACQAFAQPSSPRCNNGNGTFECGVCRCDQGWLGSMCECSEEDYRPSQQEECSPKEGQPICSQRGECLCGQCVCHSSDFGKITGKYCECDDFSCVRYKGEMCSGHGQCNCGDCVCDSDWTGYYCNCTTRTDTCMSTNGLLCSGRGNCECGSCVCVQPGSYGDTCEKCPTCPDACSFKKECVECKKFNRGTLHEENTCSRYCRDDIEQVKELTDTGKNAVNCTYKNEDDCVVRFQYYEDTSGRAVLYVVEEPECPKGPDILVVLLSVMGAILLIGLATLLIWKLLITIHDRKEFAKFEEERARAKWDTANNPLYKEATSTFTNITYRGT
# T1 sequence (P43406 31-885 partner): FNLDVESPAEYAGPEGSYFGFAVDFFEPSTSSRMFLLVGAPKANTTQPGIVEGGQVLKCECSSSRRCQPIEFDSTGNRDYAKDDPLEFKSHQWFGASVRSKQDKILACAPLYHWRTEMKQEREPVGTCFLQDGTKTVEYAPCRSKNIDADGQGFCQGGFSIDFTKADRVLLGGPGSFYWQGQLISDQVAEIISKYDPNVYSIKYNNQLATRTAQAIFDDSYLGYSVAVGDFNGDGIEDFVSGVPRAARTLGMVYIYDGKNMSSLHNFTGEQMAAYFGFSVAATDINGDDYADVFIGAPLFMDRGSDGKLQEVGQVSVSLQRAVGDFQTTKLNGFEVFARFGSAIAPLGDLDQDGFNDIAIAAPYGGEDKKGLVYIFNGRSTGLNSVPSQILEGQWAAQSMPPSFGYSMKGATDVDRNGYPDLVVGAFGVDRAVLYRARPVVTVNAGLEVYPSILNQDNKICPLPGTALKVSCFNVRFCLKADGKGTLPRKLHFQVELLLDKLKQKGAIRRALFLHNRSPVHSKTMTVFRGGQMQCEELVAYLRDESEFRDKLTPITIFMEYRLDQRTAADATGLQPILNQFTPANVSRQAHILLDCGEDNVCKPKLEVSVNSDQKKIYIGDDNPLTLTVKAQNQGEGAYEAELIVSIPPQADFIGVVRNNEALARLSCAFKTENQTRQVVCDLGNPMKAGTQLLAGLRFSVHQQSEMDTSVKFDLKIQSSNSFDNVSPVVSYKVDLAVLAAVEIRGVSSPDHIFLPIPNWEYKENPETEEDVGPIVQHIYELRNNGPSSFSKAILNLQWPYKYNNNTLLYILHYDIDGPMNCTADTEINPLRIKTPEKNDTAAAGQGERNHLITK
# T1 sequence (P43406 887-1044 partner): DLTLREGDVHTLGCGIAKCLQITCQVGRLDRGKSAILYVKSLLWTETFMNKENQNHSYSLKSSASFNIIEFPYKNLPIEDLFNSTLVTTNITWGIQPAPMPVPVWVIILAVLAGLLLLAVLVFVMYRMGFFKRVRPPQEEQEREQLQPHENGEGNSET
# B1: Vitaxin®: humanized blocking monoclonal antibody that binds Integrin αVβ3 (MEDI-522, MedImmune); humanized and optimized version of LM609 (antibody, chains of the INN, looked up, V domains shown)
# VH: QVQLVESGGGVVQPGRSLRLSCAASGFTFSSYDMSWVRQAPGKGLEWVAKVSSGGGSTYYLDTVQGRFTISRDNSKNTLYLQMNSLRAEDTAVYYCARHLHGSFASWGQGTTVTVSS
# VL: EIVLTQSPATLSLSPGERATLSCQASQSISNFLHWYQQRPGQAPRLLIRYRSQSISGIPARFSGSGSGTDFTLTISSLEPEDFAVYYCQQSGSWPLTFGGGTKVEIK
# Columns and labels:
# [1] = system: Rabbit αvβ3; assay: Flow cytometric analysis of antibody binding to cell lines
# Description: FIG. 2. Flow cytometric analysis of antibody binding to tumor cell lines. […] Rat αvβ3 was not recognized by any of the three antibodies but was detected by the anti-rat αvβ3 control antibody.
# Cells (5×10^5) were incubated with 0.5 μg of antibody and bound antibody was detected with a phycoerythrin-labeled secondary antibody. Mean channel fluorescence results are expressed as fold increase over an isotype matched control antibody. The mouse anti-rat β3 antibody F11 was included for as a positive control for the rat cell line RG2. HMVEC, human microvascular endothelial cells; ND, not done.
# [2] = target: T2, human β3 (αvβ3 on HEK293 cells) (Homo sapiens, UniProt P05106); assay: FACS analysis of HEK293 cells transfected with human β3 cDNA; assay type: binding; conditions: wild type human β3, flow cytometry, FIG. 4
# T2 construct: expressed in transfected cells; host or cells: HEK293
# T2 sequence (P05106 27-788): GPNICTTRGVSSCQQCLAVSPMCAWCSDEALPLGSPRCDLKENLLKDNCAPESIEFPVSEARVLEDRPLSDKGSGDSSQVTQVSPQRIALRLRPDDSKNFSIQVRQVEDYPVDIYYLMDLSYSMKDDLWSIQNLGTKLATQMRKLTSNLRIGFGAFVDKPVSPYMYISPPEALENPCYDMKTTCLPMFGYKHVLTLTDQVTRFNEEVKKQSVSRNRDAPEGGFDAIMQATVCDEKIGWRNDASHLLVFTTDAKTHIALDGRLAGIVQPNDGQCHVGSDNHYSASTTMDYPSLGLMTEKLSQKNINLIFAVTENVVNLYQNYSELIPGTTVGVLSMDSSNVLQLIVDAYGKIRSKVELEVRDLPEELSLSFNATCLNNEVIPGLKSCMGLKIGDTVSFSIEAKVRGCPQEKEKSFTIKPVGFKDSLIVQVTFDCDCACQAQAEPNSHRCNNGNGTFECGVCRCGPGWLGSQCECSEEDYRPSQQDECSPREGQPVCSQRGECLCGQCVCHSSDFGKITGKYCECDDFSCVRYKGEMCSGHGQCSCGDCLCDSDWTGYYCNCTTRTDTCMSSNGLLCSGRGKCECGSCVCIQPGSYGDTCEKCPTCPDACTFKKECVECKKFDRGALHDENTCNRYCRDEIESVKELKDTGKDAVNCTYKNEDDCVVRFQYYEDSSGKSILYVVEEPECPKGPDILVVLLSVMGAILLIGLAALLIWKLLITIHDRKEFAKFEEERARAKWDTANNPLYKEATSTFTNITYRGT
# T2 sequence (P06756 31-889 partner limits assumed): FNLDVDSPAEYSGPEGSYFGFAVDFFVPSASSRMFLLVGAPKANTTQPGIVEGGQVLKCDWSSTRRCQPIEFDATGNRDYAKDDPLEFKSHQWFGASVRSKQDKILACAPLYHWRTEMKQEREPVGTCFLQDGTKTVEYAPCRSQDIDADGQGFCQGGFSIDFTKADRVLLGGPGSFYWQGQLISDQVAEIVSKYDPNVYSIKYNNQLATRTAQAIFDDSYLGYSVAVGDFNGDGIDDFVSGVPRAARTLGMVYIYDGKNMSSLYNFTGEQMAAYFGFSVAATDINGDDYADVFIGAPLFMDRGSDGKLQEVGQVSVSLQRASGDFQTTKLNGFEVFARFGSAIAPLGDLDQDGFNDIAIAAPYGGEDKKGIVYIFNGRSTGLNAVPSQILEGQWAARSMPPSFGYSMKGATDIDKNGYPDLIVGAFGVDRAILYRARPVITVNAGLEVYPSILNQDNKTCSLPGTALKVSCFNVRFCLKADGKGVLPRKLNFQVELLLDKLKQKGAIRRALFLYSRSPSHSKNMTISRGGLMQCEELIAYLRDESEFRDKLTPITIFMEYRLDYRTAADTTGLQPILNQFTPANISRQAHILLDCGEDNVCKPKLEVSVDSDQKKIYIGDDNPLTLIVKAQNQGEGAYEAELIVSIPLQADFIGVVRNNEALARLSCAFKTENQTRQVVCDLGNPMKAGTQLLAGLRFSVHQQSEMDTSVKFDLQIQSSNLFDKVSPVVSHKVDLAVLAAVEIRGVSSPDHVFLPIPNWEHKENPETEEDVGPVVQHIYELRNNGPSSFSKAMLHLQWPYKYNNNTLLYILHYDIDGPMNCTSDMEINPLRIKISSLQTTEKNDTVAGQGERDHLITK
# T2 sequence (P06756 891-1048 partner limits assumed): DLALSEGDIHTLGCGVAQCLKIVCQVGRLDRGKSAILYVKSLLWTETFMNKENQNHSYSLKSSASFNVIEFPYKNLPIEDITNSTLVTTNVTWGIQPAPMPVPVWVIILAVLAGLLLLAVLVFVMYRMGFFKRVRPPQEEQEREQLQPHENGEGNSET
# Description: FIG. 4. Binding of Integrin αvβ3 specific antibodies to human β3 containing rat residues.
# Sequence comparison of residues 164 to 202 of β3 integrins from different species and design of mutations. To further characterize the binding epitope of Vitaxin®, the gene encoding β3 was cloned and sequenced from hamster cDNA. The amino acids in the region previously proposed to contain the LM609 binding epitope are shown above (dashed lines depict conserved residues). To determine which residues in the human sequence were essential for antibody binding, the amino acids shown in color were mutated to the corresponding rat residues. The resulting genes were transfected to HEK293 cells which express endogenous human αv. Resulting cell lines were analyzed by flow cytometry for antibody binding.
# This protocol is used to assess the surface expression of integrins in HEK-293 cells transfected with various Integrin subunits. Primary antibodies bound to the integrins are detected by fluorochrome-conjugated secondary antibodies and analyzed by flow cytometry.
# 1. Wash adherent cells twice with 5 ml of PBS.
# 2. Add 1.5 ml of trypsin solution or cell dissociation solution, incubate at 37_C. foir 2 min.
# 3. Add 3 ml of culture medium or FACs buffer to the plate and loosen cells from the plate by pipetting. Count cells. Resuspend cells in FACs buffer at 5×10^6 per ml.
# 4. […]
# [3] = target: T1, modified mouse Integrin αVβ3 with amino acids 164-202 of the human β chain; assay: Binding to modified mouse Integrin αVβ3; design: species or system mouse/human chimera
molecule,measurement,setting,value
B1,Fold Increase Over Control (mean channel fluorescence),"[1]; Rabbit VX7 carcinoma, 5×10^5 cells, 0.5 μg antibody, vs isotype matched control antibody",17 fold
same,binding to rabbit αvβ3 (in words),"[1]; flow cytometry, tumor cell lines, FIG. 2",recognized
same,binding to HEK293 cells transfected with human β3 cDNA,[2],detectable
same,binding to modified mouse Integrin αVβ3 (human β chain amino acids 164-202),[3],do bind
